Assay results taken from the supplement of paper PMC9170038.

Test system: MS2 coat protein
Assay: apparent KD of MS2 coat protein; designed switch direction (-1 OFF switch, 1 ON switch): 1; higher = weaker reporter binding
How it was run: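 The reported apparent KD is a per-design median over clusters, from curve fits of normalised cluster fluorescence. Protein titrations used SNAP-549-labelled MS2 coat protein, doubled from 0.7 or 1.5 nM to 3 µM, in Tris-HCl pH 7.5 buffer with KCl, MgCl2, BSA, DTT, tRNA and Tween-20, with no input, 200 uM small-molecule ligand, or an oligonucleotide input. The RNA switches were transcribed on Illumina chips by stalled E. coli RNA polymerase.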

[1] = input ligand: microRNA oligo, concentration not stated
[2] = Eterna round: R95, input ligand: FMN 200 uM
[3] = Eterna round: R95, input ligand: microRNA oligo, concentration not stated
[4] = Eterna round: R95, input ligand: none

| Sequence | apparent KD of MS2 coat protein (input ligand: FMN 200 uM) [nM] | apparent KD of MS2 coat protein [1] [nM] | apparent KD of MS2 coat protein (input ligand: none) [nM] | apparent KD of MS2 coat protein [2] [nM] | apparent KD of MS2 coat protein [3] [nM] | apparent KD of MS2 coat protein [4] [nM] |
| --- | --- | --- | --- | --- | --- | --- |
| UUGAAGAAUUAAGGAUAUCGAGUCGUCAGAUUUUACAUGAGGAUCACCCAUGUGGGUUGCGGUAUCGAGAAGGUAAAUUACAAG [JL JR Sub099 mod 6] (Eterna round: R96, puzzle: Same State NG 2) | 24.4 | 34.1 | 43.3 | – | – | – |
| UGUUGUAUUACAGGAUAUCUAUUGUUGUUAUUUAGAGAAGGGUAUUCACAUGAGGAUCACCCAUGUAUAUACGAGGAAGUUGUG [JMF's solution 75] (Eterna round: R96, puzzle: Same State NG 1) | – | 41.9 | – | – | – | – |
| GUGGUCAGACAUGAGGAUCACCCAUGUGGAAUAAAUAACGGACAGGAUAUGCAAUAUAGGAUAUAGUAGAAGGGUUGAUUGGUG (Eterna round: R96, puzzle: Same State NG 3) | – | 49.3 | – | – | – | – |
| UGCCUGAGUCGAGGAUAUUAUGGAUCCUCUAAUACAUGAGGAUCACCCAUGUAAUUAAUUAUACAUGAGAAGGCGACUCAGGCU [SSNG2/12-A1] (Eterna round: R96, puzzle: Same State NG 2) | 304 | 22.3 | 46.5 | – | – | – |
| GCAUGGUUACAUGCUAUACAUGAGGAUCACCCAUGUGAUGGGAAGGAUAUGUCCUCAAUUAGUGGACAGAAGGUCCAAACAUUU [Fiskers NG3ss - 1] (Eterna round: R96, puzzle: Same State NG 3) | 136 | 234 | 939 | – | – | – |
| AGCUAUUACGAAGGAUAUAGUGACAUGAGGAUCACCCAUGUGUACAUGAGUAAUUGUGAUCACGUCUAGAAGGUUGUACUAACA [SameState NG2 #35] (Eterna round: R96, puzzle: Same State NG 2) | 181 | 165 | 180 | – | – | – |
| AGUCCAGCCUGAGCUGGACAAAAGCAUGUACAUGAGGAUCACCCAUGUUCAUGUACAAGCUUUUUGCUCGUCUUAUA [salish99_208a_r3_043] (puzzle: Sensor for hsa-mir-208a) | – | – | – | 528 | 14.6 | 697 |
| AGUCCAGCCUGAGCUGGACAAAAGCGUGUACAUGAGGAUCACCCAUGUCAUGUACAAGCUUUUUGCUCGUCUUAAAA [Zipper 46 - 7] (puzzle: Sensor for hsa-mir-208a) | – | – | – | 63.5 | 19.9 | 69.8 |
| AUCCCAUCGGGAGGAUAUGGAACCUUAUUGGUUCUAGAAGGUCCAACAUGAGGAUCACCCAUGUGGGAGUGGUCUAAUGACCAC [SS NG10LRO01] (Eterna round: R96, puzzle: Same State NG 1) | 190 | 208 | 414 | – | – | – |
| ACAAGCUUUUUAGGAGAGAAAGGAGGGAAACAUGAGGAUCACCCAUGUAUGGUAGUGAAUAGAGGAACUCGUCUUAU [JR_SHM208A_Sub080] (puzzle: Sensor for hsa-mir-208a) | – | – | – | 90.5 | 25.6 | 152 |
| ACCCAAAGUAUAUGGGAACGAGCUUUUUAACAUGAGGAUCACCCAUGUACUCGUCUUAUAAGCAGUCGAAAGACUGC [Sensor 100 - 3] (puzzle: Sensor for hsa-mir-208a) | – | – | – | 359 | 19.2 | 390 |
| AUUCGUUUGAUAGGAUAUCACCUUACAUGAGGAUCACCCAUGUUCACCACGCUGGUUUUUCAUACUGAGAAGGAUCUUGAUGAC [JR_SSNG2_Sub007] (Eterna round: R96, puzzle: Same State NG 2) | 50.5 | 45.6 | 51.4 | – | – | – |
| UAUUUAAUCAUAGGAUAUAGUGUGAAAUUUGGACUAGAAGGAUGUAACAUGAGGAUCACCCAUGUGGUAAGUGGGAUACAUUCC [JR_SSNG1_Sub098] (Eterna round: R96, puzzle: Same State NG 1) | 110 | 75 | 117 | – | – | – |
| GUCCAAAACACAGGAUAUCCCAGUCAUGAUCUGGGAGAAGGGUGGCCACAUGAGGAUCACCCAUGUGAAGUGCGAGAGGCACGA [Inerraat] (Eterna round: R96, puzzle: Same State NG 1) | 258 | 827 | 629 | – | – | – |
| GGAGCCGGCACCGAGGAUAUUCAUAUUAAAACAUGAGGAUCACCCAUGUAGGCCAGAAGGCUUUGGGAGAAGGCGGAUCGGCUCG [Xeonanis - 3] (puzzle: Same State 2) | – | – | – | 25.3 | 310 | 546 |
| UUAUUAUUUACAUGAGGAUCACCCAUGUUUUUAUGUCAGAGACAGGAUAUAGAAGUCUCGUUUUACUAGAAGGGUCUUUUUAUU [JR_SSNG3_Sub016] (Eterna round: R96, puzzle: Same State NG 3) | 22 | 17.1 | 22 | – | – | – |
| AGUCCAGCGAAAGCUGGACAAAAGUAUGUACAUGAGGAUCACCCAUGUUCAUGUACAAGCUUUUUGCUCGUUUUAAA [JL mod - D95 - 19] (puzzle: Sensor for hsa-mir-208a) | – | – | – | 814 | 48.1 | 928 |
| AACAAUCUAUCUGAGGAUAUCAUGAAAUAAACAUGAGGAUCACCCAUGUGCAGGAAAACUGCAUAUGAGAAGGCAUAUAGAUUGA [salish99_ss2_r3_052] (puzzle: Same State 2) | – | – | – | 63.7 | 465 | 1560 |
| UUUGGGUGGCUGGAGGAUAUUCUAGUGGUUACAUGAGGAUCACCCAUGUGUCGCGCGGUUCGCGAGGAGAAGGCUGGCGGCCGUU (puzzle: Same State 2) | – | – | – | – | 93.3 | – |
| GGUAUGGACACAGGAUAUGCUAUCCUUUGGGUAGCAGAAGGGUGAACAUGAGGAUCACCCAUGUACGUGCCAGGGCGUGAGCCC [JL SSNG1 1.78] (Eterna round: R96, puzzle: Same State NG 1) | 913 | 278 | 1620 | – | – | – |
| GCUCGGACGAUGACCCACAUGAGGAUCACCCAUGUGCUUGGGCAGGAUAUCUAGAUUAAGGAUGUAGAGAAGGGUCGACCGAGC [SameState NG3 #29] (Eterna round: R96, puzzle: Same State NG 3) | 345 | 90.3 | 211 | – | – | – |
| GCUGCAUGGGCAGGAUAUGGGUCCAAAGCGCAAGUGCGCUUUGGUACAUGAGGAUCACCCAUGUCCCAGAAGGGCCCAAGCGGC [Inorgeesbi] (Eterna round: R96, puzzle: Same State NG 2) | 16.4 | 87.9 | 145 | – | – | – |
| AGGUUCCUGCUAGGAUAUCUAGGAUAUGGACGAGGAUUACCCGAGCAGGAUUACCGCACCAGAGGAGAGAAGGAGCAACAAGAG [pwkr ssNG2 2F5 2FMN.14] (Eterna round: R96, puzzle: Same State NG 2) | 1740 | 370 | 160 | – | – | – |
| AUUGCUAUCACAGGAUAUCAUGCGGAAAUCGCGUGAGAAGGGUGGACUCUGUCAUUCACGGAGGACAUGAGGAUCACCCAUGUC [SS NG10LRO17] (Eterna round: R96, puzzle: Same State NG 1) | 612 | 18.4 | 36.3 | – | – | – |
| GGUGCGAAUAAAGCCUACAUGAGGAUCACCCAUGUAUGUAGGCAGGAUAUCGUUUGCAAAGCAAACGAGAAGGGCUGUCGCACC [Mat - Same State NG 3 - JL Mod - D46] (Eterna round: R96, puzzle: Same State NG 3) | 29.9 | 55.2 | 100 | – | – | – |
| AACAAUCUAUCUGAGGAUAUCAUGAAAUAAACAUGAGGAUCACCCAUGUGCAGGAAAACUGCAUAUGAGAAGGCAGAUAGUUUGA [salish99_ss2_r3_056] (puzzle: Same State 2) | – | – | – | 47.5 | 716 | 855 |
| GCGAGCGUACUUGCAGACAUGAGGAUCACCCAUGUAAAUGGGAAGGAUAUGGUACCGUUUCGGUACCAGAAGGUCCUAAGUGAU [salish99_SSNG3_r04_301] (Eterna round: R96, puzzle: Same State NG 3) | 665 | 1080 | 1130 | – | – | – |
| GAGCUCGUGUGAGGAUAUGCCGCCGUUUCGGCUGCAGAAGGUGCUACGUUACAUGAGGAUCACCCAUGUCUCUGUUGUUUCGUG [salish99_SSNG1_r04_958] (Eterna round: R96, puzzle: Same State NG 1) | 23.5 | 20.4 | 21.9 | – | – | – |
